From patent publication US20260102505A1, “ANTI-CD45-IGN ANTIBODY DRUG CONJUGATES AND USES THEREOF” (Vor Biopharma Inc., priority 2022, published 2026) come the findings set out here.

Experiment [1] has as its target CD45 of non-human primate (NHP), on cells in vivo (non-human primate (NHP); not stated further). Description: in vivo receptor occupancy on T cells at 24 h after a single dose of 0.20 mg/kg in NHP, n=3; footnote: * % RO measured after ADC clearance.
For experiment [2] the target is unchanged. Description: in vivo receptor occupancy on T cells at 24 h after a single dose of 0.60 mg/kg in NHP, n=3.
The target is the same in experiment [3]. Description: in vivo receptor occupancy on T cells at 24 h after a single dose of 0.10 mg/kg in NHP, n=6; footnote: * % RO measured after ADC clearance.
Experiment [4] shares this target. Description: in vivo receptor occupancy on T cells at 24 h after a single dose of 0.05 mg/kg in NHP, n=3; footnote: * % RO measured after ADC clearance.
Experiment [5] has the same target. Description: in vivo receptor occupancy in NHP at the minimum efficacious dose of 0.15 mg/kg.
Experiment [6] shares this target. Description: in vivo receptor occupancy on T cells at 24 h after a single dose of 0.30 mg/kg in NHP, n=6.

B1: anti-CD45 ADC comprising anti-CD45 Ab5 conjugated to DGN-549 via cysteines at amino acid 265 (EU numbering by Kabat) in the Fc region, protease-cleavable linker (antibody, human IgG1, kappa, L234A L235A, V domains shown)
VH: EVQLVESGGGLVQPGGSLRLSCAASGFTFEAYSMNWVRQAPGKGLEWVSYISLSGATIHYADSVKGRFTISRDNAKNSLYLQMNSLRAEDTAVYYCARGGQYYYTSSDYGEVAFDIWGQGTMVTVSS
VL: DIVMTQSPLSLPVTPGEPASISCRSSQSLVSSGYNYLDWYLQKPGQSPQLLIYFGSSRASGVPDRFSGSGSGTDFTLKISRVEAEDVGVYYCMQRRRTPWSFGGGTKVEIKR
modifications: DGN549 (IGN pseudo dimer) via a protease-cleavable linker on the engineered Cys at position 265 (EU numbering; D265C)
For B1, the % Receptor Occupancy (T-cells @ 24h) in experiment [1] was found to be 6%; in experiment [2] it was 100%; in experiment [3], 4%; in experiment [4] it was 2%; in experiment [6], 46%. Moreover, in experiment [5], the receptor occupancy (RO) turned out to be 5%.
